Experimental data reported in patent publication US20240261332A1.

Molecular target: CD19 (human) (UniProt P15391)
Assay: cell-based or functional assay

Sequence of UniProt P15391 (P15391 20-556): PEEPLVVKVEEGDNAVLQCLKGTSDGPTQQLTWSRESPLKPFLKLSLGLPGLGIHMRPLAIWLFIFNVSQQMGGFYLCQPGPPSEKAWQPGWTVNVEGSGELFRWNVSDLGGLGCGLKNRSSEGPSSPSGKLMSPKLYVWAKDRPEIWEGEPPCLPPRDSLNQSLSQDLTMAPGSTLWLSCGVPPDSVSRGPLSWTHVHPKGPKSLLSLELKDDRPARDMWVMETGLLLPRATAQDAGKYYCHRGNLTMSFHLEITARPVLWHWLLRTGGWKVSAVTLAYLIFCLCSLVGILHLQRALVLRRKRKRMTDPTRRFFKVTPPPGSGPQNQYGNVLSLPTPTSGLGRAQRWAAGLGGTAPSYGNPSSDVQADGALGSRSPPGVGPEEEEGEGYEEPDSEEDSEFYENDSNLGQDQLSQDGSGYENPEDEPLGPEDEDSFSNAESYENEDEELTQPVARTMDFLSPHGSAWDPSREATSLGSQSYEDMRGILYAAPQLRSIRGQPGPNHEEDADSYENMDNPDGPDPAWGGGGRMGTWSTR

“anti-CD19 activating CAR (19scFv.CD28.zeta) (from UniProt P10747 153-220; P20963 52-164)” gave a portion of CAR19-NK cells that acquired CD19 on their surface (trogocytosis) within minutes of co-culture with Raji targets, flow cytometry of 75%.
